Molecular target: Cynomolgus monkey IL-1β (cynomolgus monkey)
Experiment: Biacore low-res, mAb captured, cyno IL-1β 117 nM, 25C

Sequence of Cynomolgus monkey IL-1β (cynomolgus monkey) (P48090 117-269 limits assumed): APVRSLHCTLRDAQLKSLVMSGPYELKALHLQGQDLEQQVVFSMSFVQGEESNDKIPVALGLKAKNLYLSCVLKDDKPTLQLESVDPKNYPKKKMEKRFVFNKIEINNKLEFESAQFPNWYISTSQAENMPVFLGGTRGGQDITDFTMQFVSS

Row | Binder | Kd [nM] | koff [s⁻¹] | kon [M⁻¹ s⁻¹]
1 | 4.20.1 (antibody, human IgG4, V domains shown) VH: QVQLVESGGGVVQPGRSLRLSCAASGFTFSNYGMNWVRQAPGKGLEWVAVIWYDGNNKSEADSVKGRFTISRDNSKNTLYLQMNSLRAEDTAVYYCARDSRSGPFDYWGQGTLVTVSS VL: EIVLTQSPDFQSVTPKEKVTITCRASQSIGSSLHWYQQKPDQSPKLLIKFASQSFSGVPSRISGSGSGTDFTLTINSLEAEDAATYYCHQSSSLPFTFGPGTKVDIK | 6.3 | 0.005 | 800000
2 | 8.50.1 (antibody, human IgG4, V domains shown) VH: QVQLQESGPGLVKPSETLSLTCTVSGGSISSDYWSWIRQPAGKGLEWIGRFYNSGRTNYRPSLKSRITMSVDTSKNQFSLKLSSVTAADTAVYYCARDMYSGRGNWYFDLWGRGTLVTVS VL: SYELTQPPSVSVSPGQTARITCSGDALPKKYAYWYQQKSGQAPVLVIYEDSKRPSGIPERFSGSSSGTMATLTISGAQVEDEADYYCYSTDSSDNHRVFGGGTKLTVL | 2.5 | 0.0012 | 470000
3 | 9.31.1 (antibody, human IgG4, V domains shown) VH: QVQLVESGGGLVKPGGSLRLSCAASGFTFSDYYMSWIRQAPGKGLEWVSYIRSSGSTIYYADSVKGRFTISRDNAKNSLYLQMNSLRAEDTAVYYCARTPYSGRYHWYFDLWGRGTLVTVS VL: SYELTQPPSVSVSPGQTARITCSGDALPIKYAYWYQHKSGQAPVLVIYEDSKRPSGIPERFSGSSSGTMATLTISGAQVEDEADYYCYSTDSSGNHRVFGGGTKLTVL | 5 | 0.0015 | 300000
4 | 5.36.1 (antibody, human IgG4, V domains shown) VH: QVQLQQSGPGLVKPSQTLSLTCAISGDSVSSNSAAWNWIRQSPSRGLEWLGRTYYRSKWYNDYAVSVKSRITINPDTSKNQFSLQLNSVTPEDTAVYYCAREEQQLVRYYYYYGMDVWGQGTTVTVS VL: DIVMTQTPLSLSVTPGQPASISCKSSQSLLHSDGRTYLYWYLQRPGQPPQLLIYEASYRFSGVPDRFSGSGSGTDFTLKISRVEAEDVGIYYCMQSIQLPRTFGQGTRLEIK | 3.4 | 0.00072 | 210000
5 | 9.26.1 (antibody, human IgG4, V domains shown) VH: QVQLVESGGGVVQPGRSLRLSCAASGFTFNNYGMHWVRQAPGKGLECVAVIWYDGGNKYYADSVKGRFAISRDNSKNTLYLQMNSLRAEDTAVYYCTAVTKLNYYYGMDVWGQGTTVTVS VL: QSALTQPASVSGSPGQSITISCTGTSSDVGGYNYVSWYQQHPGKAPKLMIYEVSNRPSGVSNRFSGSKSGNTASLTISGLQAEDEADYYCSSYTSSSILVFGGGTKLTVL | 1.3 | 0.0002 | 150000
6 | 9.2.1 (antibody, human IgG4, V domains shown) VH: QVQLVESGGGVVQPGRSLRLSCAASGFTFNNYGMHWVRQAPGKGLECVAVIWYDGGNKYYADSVKGRFAISRDNSKNTLYLQMNSLRAEDTAVYYCTAVTTLYYYYGMDVWGQGTTVTVS VL: QSALTQPASVSGSPGQSITISCTGTSSDVGGYNYVSWYQQHPGKAPKLMIYEVSNRPSGVSNRFSGSKSGNTASLTISGLQAEDEADYYCSSYTSSSILVFGGGTKLTVL | 4.5 | 0.0014 | 310000
7 | 5.5.1 (antibody, IgG4, V domains shown) VH: QVQLVESGGGVVQPGRSLRLSCAASGFTFSSYGMHWVRQAPGKGLEWVAVIWYDGDNKYYADSVQGRFTISRDNSKNTLYLQMNSLRPEDTAVYYCARERSSSWYFDYWGQGTLVTVSS VL: QSALTQPASVSGSPGQSITISCTGTSSDVGSYNLVSWYQQHPGKAPKLMIYEVSKRPSGISNRFSGSKSGNTASLTISGLQAEDEADYYCCSYAGSSTWVFGGGTKLTVL | 4.6 | 0.0011 | 240000

Stronger by Kd, values ahead:

Row | Kd [nM] | koff [s⁻¹] | kon [M⁻¹ s⁻¹] | Binder
8 | 0.8 | 0.00027 | 330000 | 9.11.1 (antibody, human IgG4, V domains shown) VH: QVQLVESGGGVVQPGRSLRLSCAASGFTFSVYGMHWVRQAPGKGLEWVAVIWYDGNNKYYVDSVKGRFTISRDNSKNTLYLQLNSLRAEDTAVYYCARERSSSWYFDYWGQGTLVTVSS VL: QSALTQPASVSGSSGQSITISCTGTSSDVGSYNLVSWYQQHPGKAPKLMIYEVSKRPSGVSNRFSGSKSGNTASLTISGLQAEDEADYYCCSYAGNSNWVFGGGTKLTVL
9 | 0.8 | 9.2e-05 | 110000 | 8.18.1 (antibody, human IgG4, V domains shown) VH: QVQLQESGPGLVKPSETLSLTCTVSGGSVSSGGYYWSWIRQPPGKGLEWIGYFYYSGSPNYNPSLKRRIAISVDTSKNQFSLRLSSVTAADTAVYYCARDPMHYYGMDVWGQGTTVTVSS VL: SSELTQPPSVSVFPGQTANITCSGDKLGDKFACWYQQKPGQSPVLVIYRDNKRPSGIPERFSGSNSGNTATLTISGTQAMDEADYYCQAWDSSTYVVFGGGTKLTVL
10 | 0.5 | 0.00012 | 260000 | 9.19.1 (antibody, human IgG4, V domains shown) VH: QVQLVESGGGVVQPGRSLRLSCAASGFTFNNYGMHWVRQAPGKGLECVAVIWYDGGNKYYADSVKGRFAISRDNSKNTLYLQMNSLRAEDTAVYYCTAVTKLNYYYGMDVWGQRTTVTVS VL: QSALTQPASVSGSPGQSITISCTGTSSDVGGYNYVSWYQQHPGKAPKFMIYEVSNRPSGVSNRFSGSKSGNTASLTISGLQAEDEADYYCSSYTSSSILVFGGGTKLTVL
11 | 1.1 | 0.00031 | 270000 | 6.26.1 (antibody, human IgG4, V domains shown) VH: QLQLQESGPGLVKPSETLSLTCTVSGGSISRSSYYWGWIRQPPGKGLEWMGNIYYSGSTHYNPSLKSRVTISVDTSKNQFSLKLSSVTAADTAVFYCAKGREYISSSGYGMDVWGQGTTVTVS VL: SYELTQPPSVSVSPGQTASITCSGDKLGNKYVCWYQQKPGQSPVLVIFQDSRRPSGIPERFSGSNSGNTATLTISGTQAMDEADYYCQAWDTSTVIFGGGTKLTVL

— US20070065439A1
